Results as given in patent publication US20030148462A1, “Dual inhibition of sister chromatid separation at metaphase” (President and fellows of Harvard College, priority 2001, published 2003).

Assays:
[1] = target: T1, catalytically inactive human separase mutant (catalytic cysteine replaced by serine), with three N-terminal … (human, UniProt Q14674 1-2120); test: affinity isolation of tagged catalytically inactive separase (CS, lane 2) from transfected 293T cells, Western blot
T1 construct: also called CS; not shown: three HA tags fused to the amino terminus

[2] = target: T2, separase (Homo sapiens, UniProt Q14674); test: Re-inhibition of pre-activated separase by recombinant securin (cohesin hSCC1 cleavage); assay type: biochemical; conditions: separase 4 nM, one hour on ice
T2 construct: Full-length human separase was PCR-amplified from a human fetal thymus cDNA library; made in house
T2 sequence (Q14674 1-1486): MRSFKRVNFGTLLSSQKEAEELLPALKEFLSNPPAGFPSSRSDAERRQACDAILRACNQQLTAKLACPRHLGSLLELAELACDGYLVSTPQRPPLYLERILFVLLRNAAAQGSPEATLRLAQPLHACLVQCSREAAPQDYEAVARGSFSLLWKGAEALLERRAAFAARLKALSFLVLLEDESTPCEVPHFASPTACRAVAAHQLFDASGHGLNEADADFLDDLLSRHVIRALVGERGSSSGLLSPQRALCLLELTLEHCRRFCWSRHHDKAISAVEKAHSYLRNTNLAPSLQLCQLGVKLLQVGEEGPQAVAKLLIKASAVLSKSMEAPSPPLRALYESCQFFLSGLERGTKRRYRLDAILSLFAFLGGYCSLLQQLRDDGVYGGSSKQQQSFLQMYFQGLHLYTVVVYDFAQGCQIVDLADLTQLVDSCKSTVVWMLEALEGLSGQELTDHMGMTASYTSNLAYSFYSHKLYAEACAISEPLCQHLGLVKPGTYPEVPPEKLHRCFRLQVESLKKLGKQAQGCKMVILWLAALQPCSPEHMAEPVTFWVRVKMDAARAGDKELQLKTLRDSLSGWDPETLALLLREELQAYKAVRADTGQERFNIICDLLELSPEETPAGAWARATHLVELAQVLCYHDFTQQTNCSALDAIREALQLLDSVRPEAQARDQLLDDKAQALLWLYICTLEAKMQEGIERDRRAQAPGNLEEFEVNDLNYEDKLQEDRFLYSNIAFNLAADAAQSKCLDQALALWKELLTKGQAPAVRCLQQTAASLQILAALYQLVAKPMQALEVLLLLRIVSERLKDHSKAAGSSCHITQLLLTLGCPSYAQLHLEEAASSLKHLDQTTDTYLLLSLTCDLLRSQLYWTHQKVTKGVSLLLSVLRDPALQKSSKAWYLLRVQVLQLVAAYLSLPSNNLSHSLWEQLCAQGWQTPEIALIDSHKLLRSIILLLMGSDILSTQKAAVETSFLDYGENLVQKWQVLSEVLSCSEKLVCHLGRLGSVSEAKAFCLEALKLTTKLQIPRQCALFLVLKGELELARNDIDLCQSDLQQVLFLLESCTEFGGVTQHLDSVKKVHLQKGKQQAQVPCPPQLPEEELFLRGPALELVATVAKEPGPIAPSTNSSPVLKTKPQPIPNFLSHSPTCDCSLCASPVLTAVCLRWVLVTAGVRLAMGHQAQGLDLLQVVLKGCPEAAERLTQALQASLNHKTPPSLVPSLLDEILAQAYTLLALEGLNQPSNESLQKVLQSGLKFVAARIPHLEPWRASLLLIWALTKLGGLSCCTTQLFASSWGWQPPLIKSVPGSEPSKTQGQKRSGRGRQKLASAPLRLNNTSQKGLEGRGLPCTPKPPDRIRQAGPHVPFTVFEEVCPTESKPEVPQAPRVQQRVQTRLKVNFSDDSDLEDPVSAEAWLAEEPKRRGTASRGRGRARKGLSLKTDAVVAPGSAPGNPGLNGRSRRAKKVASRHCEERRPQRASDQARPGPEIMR
T2 sequence (Q14674 1536-2120): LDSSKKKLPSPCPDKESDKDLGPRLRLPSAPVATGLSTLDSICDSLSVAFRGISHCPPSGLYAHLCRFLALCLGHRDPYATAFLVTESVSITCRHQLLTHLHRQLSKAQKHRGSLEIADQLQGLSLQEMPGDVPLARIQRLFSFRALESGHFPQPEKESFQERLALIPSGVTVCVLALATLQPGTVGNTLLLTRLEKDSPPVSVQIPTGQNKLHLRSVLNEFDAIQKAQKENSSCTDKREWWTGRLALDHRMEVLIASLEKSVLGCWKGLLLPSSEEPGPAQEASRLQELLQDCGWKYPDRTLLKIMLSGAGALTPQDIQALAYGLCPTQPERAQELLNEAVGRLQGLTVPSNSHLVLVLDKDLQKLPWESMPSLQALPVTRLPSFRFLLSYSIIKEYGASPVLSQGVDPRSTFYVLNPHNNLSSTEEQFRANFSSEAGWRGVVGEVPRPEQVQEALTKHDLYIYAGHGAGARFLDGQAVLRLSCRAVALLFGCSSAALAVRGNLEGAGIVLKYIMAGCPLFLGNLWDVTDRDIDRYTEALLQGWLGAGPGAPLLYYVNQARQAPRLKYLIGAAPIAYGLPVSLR
Procedure: FIGS. 7A-7C depict the independent inhibition of separase activity by phosphorylation of separase and by binding of securin. (A) depicts a Western blot (upper panel) and cohesin^hSCC1 cleavage activity using isolated chromosomes as substrate (lower panel). Lane 2: Consecutive treatment of separase with high-Δ90 extract twice. (B) depicts separase that had been pre-activated in low-Δ90 extract that was eluted and incubated with recombinant securin (lanes 2 and 3) or reference buffer (lane 1) for one hour on ice. Subsequently, its cleavage activity towards in vitro translated ^35S-cohesin^hSCC1 was tested (upper panel). The separase concentration in each reaction was 4 nM, as estimated by Coomassie staining. To compare wild type separase with PM-2/4 mutant separase in its ability to bind securin the same experiment was repeated with PM-2/4 (lower panel). Roughly equal separase concentrations in both cases were assured by comparative immunoblotting (see FIG. 4B, lanes 15 and 17). (C) depicts a model for the dual inhibition of separase in metaphase and its activation at anaphase onset. PPase denotes an unknown protein phosphatase that is proposed to act on phosphorylated separase.
To determine whether securin can inhibit separase independent of the phosphorylation state of separase, and whether separase that has already been activated and has therefore cleaved itself be re-inhibited by either of the two inhibitory mechanisms, active separase was generated by treating a securin/separase complex with a low-Δ90 extract (L; FIG. 7) to degrade securin and dephosphorylate separase. […] Active separase on beads was then incubated with either recombinant securin or a high-Δ90 extract and assayed for its ability to cleave cohesin^hSCC1. […]

[3] = target: T3, tagged human separase, wild type, with three N-terminal HA tags (human, UniProt Q14674 1-2120); test: affinity isolation of tagged separase from metaphase-arrested transfected 293T cells, Western blot
T3 construct: also called WT; wild type separase; not shown: three HA tags fused to the amino terminus

[4] = target: T4, tagged human separase, wild type, with N-terminal ZZ-TEV4-tag (human, UniProt Q14674 1-2120); test: affinity-purified complex from transfected 293T cells
T4 construct: It was therefore self-cleaved into about 175 and 55 kDa fragments and dephosphorylated; also called wild type separase; WT

binding result [1]: binds
Molar excess of securin sufficient to fully suppress cohesin hSCC1 cleavage [2]: ~2.5 fold molar excess
binding result [3]: binds
binding result [4]: binds
B1: human securin co-expressed with tagged separase in 293T cells (other, UniProt O95997 2-202, looked up)
chain: ATLIYVDKENGEPGTRVVAKDGLKLGSGPSIKALDGRSQVSTPRFGKTFDAPPALPKATRKALGTVNRATEKSVKTKGPLKQKQPSFSAKKMTEKTVKAKSSVPASDDAYPEIEKFFPFNPLDFESFDLPEEHQIAHLPLSGVPLMILDEERELEKLFQLGPPSPVKMPSPPWESNLLQSPSSILSTLDVELPPVCCDIDI
notes: also called associated securin
